From patent US20250298024A1

Experiments:
[1] = biological target: polypeptide molecule 8 (human) (UniProt P05186); assay: sandwich ELISA, ALP-labeled anti-TNAP detection; calibrator C2 (35 ug/mL), run 3
[2] = biological target: polypeptide molecule 8 (human) (UniProt P05186); assay: sandwich ELISA, ALP-labeled anti-TNAP detection; calibrator C1 (17.5 ug/mL), run 1
[3] = biological target: polypeptide molecule 8 (human) (UniProt P05186); assay: sandwich ELISA, ALP-labeled anti-TNAP detection; calibrator C4 (140 ug/mL), run 1
[4] = biological target: polypeptide molecule 8 (human) (UniProt P05186); assay: sandwich ELISA, ALP-labeled anti-TNAP detection; calibrator C3 (70 ug/mL), run 1
[5] = biological target: polypeptide molecule 8 (human) (UniProt P05186); assay: sandwich ELISA, ALP-labeled anti-TNAP detection; calibrator C5 (280 ug/mL), run 3
[6] = biological target: polypeptide molecule 8 (human) (UniProt P05186); assay: sandwich ELISA, ALP-labeled anti-TNAP detection; calibrator C2 (35 ug/mL), mean of 3
[7] = biological target: polypeptide molecule 8 (human) (UniProt P05186); assay: sandwich ELISA, ALP-labeled anti-TNAP detection; calibrator C1 (17.5 ug/mL), run 2
[8] = biological target: polypeptide molecule 8 (human) (UniProt P05186); assay: sandwich ELISA, ALP-labeled anti-TNAP detection; calibrator C4 (140 ug/mL), run 2
[9] = biological target: polypeptide molecule 8 (human) (UniProt P05186); assay: sandwich ELISA, ALP-labeled anti-TNAP detection; calibrator C1 (17.5 ug/mL), mean of 3
[10] = biological target: polypeptide molecule 8 (human) (UniProt P05186); assay: sandwich ELISA, ALP-labeled anti-TNAP detection; calibrator C3 (70 ug/mL), run 3
[11] = biological target: polypeptide molecule 8 (human) (UniProt P05186); assay: sandwich ELISA, ALP-labeled anti-TNAP detection; calibrator C5 (280 ug/mL), mean of 3
[12] = biological target: polypeptide molecule 8 (human) (UniProt P05186); assay: sandwich ELISA, ALP-labeled anti-TNAP detection; calibrator C4 (140 ug/mL), mean of 3
[13] = biological target: polypeptide molecule 8 (human) (UniProt P05186); assay: sandwich ELISA, ALP-labeled anti-TNAP detection; calibrator C5 (280 ug/mL), run 2
[14] = biological target: polypeptide molecule 8 (human) (UniProt P05186); assay: sandwich ELISA, ALP-labeled anti-TNAP detection; calibrator C5 (280 ug/mL), run 1
[15] = biological target: polypeptide molecule 8 (human) (UniProt P05186); assay: sandwich ELISA, ALP-labeled anti-TNAP detection; calibrator C1 (17.5 ug/mL), run 3
[16] = biological target: polypeptide molecule 8 (human) (UniProt P05186); assay: sandwich ELISA, ALP-labeled anti-TNAP detection; calibrator C3 (70 ug/mL), mean of 3
[17] = biological target: polypeptide molecule 8 (human) (UniProt P05186); assay: sandwich ELISA, ALP-labeled anti-TNAP detection; calibrator C2 (35 ug/mL), run 1
[18] = biological target: polypeptide molecule 8 (human) (UniProt P05186); assay: sandwich ELISA, ALP-labeled anti-TNAP detection; calibrator C3 (70 ug/mL), run 2
[19] = biological target: polypeptide molecule 8 (human) (UniProt P05186); assay: sandwich ELISA, ALP-labeled anti-TNAP detection; calibrator C4 (140 ug/mL), run 3
[20] = biological target: polypeptide molecule 8 (human) (UniProt P05186); assay: sandwich ELISA, ALP-labeled anti-TNAP detection; calibrator C2 (35 ug/mL), run 2
[21] = biological target: polypeptide molecule 7 (bovine) (UniProt P19111); assay: HI-1000 capture immunoassay, ALP chemiluminescence; calibrator C5 (7.686667 ug/mL), run 2
[22] = biological target: polypeptide molecule 7 (bovine) (UniProt P19111); assay: HI-1000 capture immunoassay, ALP chemiluminescence; calibrator C4 (2.562222 ug/mL), run 3
[23] = biological target: polypeptide molecule 7 (bovine) (UniProt P19111); assay: HI-1000 capture immunoassay, ALP chemiluminescence; calibrator C5 (7.686667 ug/mL), mean of 3
[24] = biological target: polypeptide molecule 7 (bovine) (UniProt P19111); assay: HI-1000 capture immunoassay, ALP chemiluminescence; calibrator C3 (0.2846914 ug/mL), run 2
[25] = biological target: polypeptide molecule 7 (bovine) (UniProt P19111); assay: HI-1000 capture immunoassay, ALP chemiluminescence; calibrator C5 (7.686667 ug/mL), run 3
[26] = biological target: polypeptide molecule 7 (bovine) (UniProt P19111); assay: HI-1000 capture immunoassay, ALP chemiluminescence; calibrator C1 (0.0177932 ug/mL), run 1
[27] = biological target: polypeptide molecule 7 (bovine) (UniProt P19111); assay: HI-1000 capture immunoassay, ALP chemiluminescence; calibrator C3 (0.2846914 ug/mL), run 3
[28] = biological target: polypeptide molecule 7 (bovine) (UniProt P19111); assay: HI-1000 capture immunoassay, ALP chemiluminescence; calibrator C2 (0.0711728 ug/mL), run 1
[29] = biological target: polypeptide molecule 7 (bovine) (UniProt P19111); assay: HI-1000 capture immunoassay, ALP chemiluminescence; calibrator C2 (0.0711728 ug/mL), run 3
[30] = biological target: polypeptide molecule 7 (bovine) (UniProt P19111); assay: HI-1000 capture immunoassay, ALP chemiluminescence; calibrator C2 (0.0711728 ug/mL), mean of 3
[31] = biological target: polypeptide molecule 7 (bovine) (UniProt P19111); assay: HI-1000 capture immunoassay, ALP chemiluminescence; calibrator C3 (0.2846914 ug/mL), run 1
[32] = biological target: polypeptide molecule 7 (bovine) (UniProt P19111); assay: HI-1000 capture immunoassay, ALP chemiluminescence; calibrator C1 (0.0177932 ug/mL), mean of 3
[33] = biological target: polypeptide molecule 7 (bovine) (UniProt P19111); assay: HI-1000 capture immunoassay, ALP chemiluminescence; calibrator C3 (0.2846914 ug/mL), mean of 3
[34] = biological target: polypeptide molecule 7 (bovine) (UniProt P19111); assay: HI-1000 capture immunoassay, ALP chemiluminescence; calibrator C1 (0.0177932 ug/mL), run 3
[35] = biological target: polypeptide molecule 7 (bovine) (UniProt P19111); assay: HI-1000 capture immunoassay, ALP chemiluminescence; calibrator C4 (2.562222 ug/mL), run 2
[36] = biological target: polypeptide molecule 7 (bovine) (UniProt P19111); assay: HI-1000 capture immunoassay, ALP chemiluminescence; calibrator C1 (0.0177932 ug/mL), run 2
[37] = biological target: polypeptide molecule 7 (bovine) (UniProt P19111); assay: HI-1000 capture immunoassay, ALP chemiluminescence; calibrator C5 (7.686667 ug/mL), run 1
[38] = biological target: polypeptide molecule 7 (bovine) (UniProt P19111); assay: HI-1000 capture immunoassay, ALP chemiluminescence; calibrator C4 (2.562222 ug/mL), run 1
[39] = biological target: polypeptide molecule 7 (bovine) (UniProt P19111); assay: HI-1000 capture immunoassay, ALP chemiluminescence; calibrator C2 (0.0711728 ug/mL), run 2
[40] = biological target: polypeptide molecule 7 (bovine) (UniProt P19111); assay: HI-1000 capture immunoassay, ALP chemiluminescence; calibrator C4 (2.562222 ug/mL), mean of 3

Chain of UniProt P19111 (P19111 other isoform, or with tags, fused parts or gaps limits assumed): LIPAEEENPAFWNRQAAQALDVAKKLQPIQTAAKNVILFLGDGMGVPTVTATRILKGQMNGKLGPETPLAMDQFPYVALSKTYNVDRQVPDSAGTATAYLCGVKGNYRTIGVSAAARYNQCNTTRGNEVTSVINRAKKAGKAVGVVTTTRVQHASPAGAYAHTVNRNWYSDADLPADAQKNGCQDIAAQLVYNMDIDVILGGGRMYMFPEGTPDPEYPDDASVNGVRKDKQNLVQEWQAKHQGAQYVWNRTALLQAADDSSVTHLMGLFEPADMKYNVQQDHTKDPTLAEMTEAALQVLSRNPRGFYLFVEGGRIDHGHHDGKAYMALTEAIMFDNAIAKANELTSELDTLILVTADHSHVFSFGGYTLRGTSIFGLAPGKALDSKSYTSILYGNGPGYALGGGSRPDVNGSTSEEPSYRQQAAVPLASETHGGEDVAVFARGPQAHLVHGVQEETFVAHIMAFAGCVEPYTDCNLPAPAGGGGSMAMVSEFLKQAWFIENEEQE
Chain of UniProt P05186 (P05186 other isoform, or with tags, fused parts or gaps limits assumed): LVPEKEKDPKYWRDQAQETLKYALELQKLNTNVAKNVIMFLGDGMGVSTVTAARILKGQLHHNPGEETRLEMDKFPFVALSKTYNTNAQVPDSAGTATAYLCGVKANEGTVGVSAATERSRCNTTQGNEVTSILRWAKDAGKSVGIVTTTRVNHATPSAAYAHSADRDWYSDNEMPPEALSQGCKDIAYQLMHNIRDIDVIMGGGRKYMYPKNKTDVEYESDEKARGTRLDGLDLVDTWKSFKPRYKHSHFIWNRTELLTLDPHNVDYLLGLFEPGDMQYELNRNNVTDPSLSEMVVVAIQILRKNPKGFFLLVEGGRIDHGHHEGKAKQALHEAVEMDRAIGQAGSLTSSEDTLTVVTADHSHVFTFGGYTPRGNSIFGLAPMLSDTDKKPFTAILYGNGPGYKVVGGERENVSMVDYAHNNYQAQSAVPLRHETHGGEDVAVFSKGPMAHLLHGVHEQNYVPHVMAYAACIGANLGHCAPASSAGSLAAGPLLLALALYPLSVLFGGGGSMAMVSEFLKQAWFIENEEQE

## anti-Annexin A1 antibody (Santacruz, sc-12740)
[1]
  relative emission intensity (RLU): 25000 RLU
[2]
  relative emission intensity (RLU): 16500 RLU
[3]
  relative emission intensity (RLU): 50900 RLU
[4]
  relative emission intensity (RLU): 31900 RLU
[5]
  relative emission intensity (RLU): 87800 RLU
[6]
  relative emission intensity (RLU), AV: 22800 RLU
[7]
  relative emission intensity (RLU): 16400 RLU
[8]
  relative emission intensity (RLU): 51900 RLU
[9]
  relative emission intensity (RLU), AV: 16700 RLU
[10]
  relative emission intensity (RLU): 32100 RLU
[11]
  relative emission intensity (RLU), AV: 87600 RLU
[12]
  relative emission intensity (RLU), AV: 51200 RLU
[13]
  relative emission intensity (RLU): 86100 RLU
[14]
  relative emission intensity (RLU): 89000 RLU
[15]
  relative emission intensity (RLU): 17000 RLU
[16]
  relative emission intensity (RLU), AV: 32400 RLU
[17]
  relative emission intensity (RLU): 21600 RLU
[18]
  relative emission intensity (RLU): 33200 RLU
[19]
  relative emission intensity (RLU): 50900 RLU
[20]
  relative emission intensity (RLU): 21700 RLU

## biotin-labeled anti-Annexin A1 antibody (Clone: EH17a)
[21]
  emission intensity (count): 460000 count
[22]
  emission intensity (count): 271000 count
[23]
  emission intensity (count), AV: 450000 count
[24]
  emission intensity (count): 46800 count
[25]
  emission intensity (count): 452000 count
[26]
  emission intensity (count): 3800 count
[27]
  emission intensity (count): 45800 count
[28]
  emission intensity (count): 13000 count
[29]
  emission intensity (count): 13000 count
[30]
  emission intensity (count), AV: 13000 count
[31]
  emission intensity (count): 47000 count
[32]
  emission intensity (count), AV: 3700 count
[33]
  emission intensity (count), AV: 46600 count
[34]
  emission intensity (count): 3650 count
[35]
  emission intensity (count): 260000 count
[36]
  emission intensity (count): 3650 count
[37]
  emission intensity (count): 439000 count
[38]
  emission intensity (count): 266000 count
[39]
  emission intensity (count): 13100 count
[40]
  emission intensity (count), AV: 266000 count
